Source: patent publication US7422862B2, “Methods for identifying modulators of apoptosis” (The Burnham Institute, priority 2001, dated 2008)

Key:
[1] = molecular target: T1, Bak (Homo sapiens, UniProt Q16611); assay: Bak-induced apoptosis in transfected cells; type: cell-based; parameters: expressed in transfected cells; conditions: CSM14.1 or PC-3 cells, transient co-transfection
T1 sequence (Q16611 1-211): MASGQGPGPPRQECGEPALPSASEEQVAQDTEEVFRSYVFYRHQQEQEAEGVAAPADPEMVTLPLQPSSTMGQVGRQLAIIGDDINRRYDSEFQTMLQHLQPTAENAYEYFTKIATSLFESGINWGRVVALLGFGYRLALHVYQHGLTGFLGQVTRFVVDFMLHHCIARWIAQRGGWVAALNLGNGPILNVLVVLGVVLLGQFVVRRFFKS
Description: (A-D) CMS14.1 neuronal cells were transfected with plasmids encoding Flag-HN peptide or Flag-control (27-amino-acid) peptide, together with GFP-encoding plasmid at 4:1 ratio. Cells were either cultured without further treatment (open bars) or subjected to various apoptotic stimuli for various times (dark bars), including (A) STS for 8 h (dark symbols=Flag-control; open symbols=Flag-HN), (B) Serum-deprivation for 72 h, (C) 10 joules/m2 Uvirradiation followed by 24 h culture, and (D) 50 ng/ml TNFa in […] for 24 h. Cells were then fixed and stained with DAPI to determine the percentage of apoptotic cells, evaluating=200 GFP-positive cells per sample (mean±SD; n=3). (inset) Lysates prepared from replicate cultures of transfected cells were normalized for total protein content and analyzed by immunoblotting using anti-Flag (top) and anti-tubulin (bottom) antibodies, confirming production of similar amounts of Flag-control and Flag-HN peptides. […] (Upper panel) After 72 hr, cell lysates were prepared and 100 ug was analyzed by immunoblotting using anti-HN and anti-tubulin (as a loading control) antibodies. (Lower panel) At 72 hr after siRNA transfection, SF268 cells were cultured with 0.1 μM STS for 8 hrs, then % apoptosis was determined (mean+std dev; n=3). […] Apoptosis (%) was measured 48 hrs later among GFP-positive cells. […]

[2] = molecular target: purified recombinant Bax (Homo sapiens, UniProt Q07812); assay: Isolated mitochondria: Bax association and cytochrome c release assay; type: biochemical; conditions: 100 μM peptide preincubated with Bax, HCT116 mitochondria
purified recombinant Bax, sequence (Q07812 whole entry): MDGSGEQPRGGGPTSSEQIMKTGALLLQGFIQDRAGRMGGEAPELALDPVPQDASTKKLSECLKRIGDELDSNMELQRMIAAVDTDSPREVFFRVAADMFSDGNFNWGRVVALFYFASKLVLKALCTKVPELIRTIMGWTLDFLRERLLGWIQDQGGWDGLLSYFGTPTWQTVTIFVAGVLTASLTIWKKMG
Description: (A-B) Humanin peptide prevents STS-induced Bax translocation in vivo. Cos-7 cells were first transfected with GFP-Bax plasmids. After 24 hrs, untagged wild-type or C8P mutant Humanin peptides were introduced into cells using ChariotTM reagent, and 2 h later cells were treated with 1 μM STS. After 4 h, the percentage of cells with translocated Bax was determined (mean±SD; n=3) by confocal microscopy (A) and representative photomicrographs (B). (C) Wild-type or C8P mutant Humanin peptides were introduced into Cos7 cells using ChariotTM reagent. Cytosolic (C) and mitochondria-containing (M) fractions were isolated by differential centrifugation 23 and analyzed by immunoblotting using anti-Bax (top), Hsp60 (middle) (mitochondrial marker), or Tubulin (bottom) (cytosol marker) antibodies. (D) HN or mutant control double-strand siRNAs were transfected into SF268 cells. After 48 h, cells were cultured without (Control) or with 0.1 uM STS. After 24 hr, cells were fractionated and analyzed by immunoblotting as above. (E) Isolated mitochondria were mixed with 400 ng Bax protein, with or without preincubating Bax with 100 uM Humanin or Humanin(C8P) peptides for 10 min. After 3 h at 30° C., mitochondria were centrifuged and the resulting pellets (P) and supernatants (S) were analyzed by immunoblotting using anti-Cytochrome c (top), Hsp60 (middle), and Bax (bottom) antibodies. (F) HN peptide enforces the interaction of Bax TM domain with Bax.TM. Lysates from HEK293T cells expressing Flag-Bax.TM were pretreated with or without Humanin or Humanin(C8P) peptides. Lysates were then mixed in vitro with lysates of HEK293T cells expressing GFP-TM(Bax). Immunoprecipitations were performed with anti-Flag antibody, analyzing lysates and immunoprecipitates (IP) by immunoblotting using monoclonal anti-GFP antibody.
To determine whether Humanin can act directly on Bax, the effects of Humanin on isolated mitochondria were tested. Addition of recombinant purified Bax protein to mitochondria in vitro induces cytochrome c release (Jurgensmeier et al., Proc. Natl. Acad. Sci. USA 95:4997-5002 (1998)). […] Therefore Humanin can directly suppress Bax targeting to mitochondria, without requirement for intact cells.
Cytochrome c release assays were performed as follows. Mitochondria were isolated from HCT116 cells by differential centrifugation as described above. Purified recombinant human Bax protein (400 ng for each sample) was pre-incubated with or without 100 μM synthetic Humanin peptide or mutant Humanin (C8P) peptide for 10 min at 4° C. The untreated or peptide pre-treated Baxprotein samples were then mixed with equal amount of HCT116 mitochondria (in a volume of 40 μl) at 30° C. for 3 hours. […]

Bak-induced apoptosis [1] | Substance | Bax association with mitochondria [2] | cytochrome c release [2]
not affected | GFP-HN: Wild-type full-length Humanin fused to Green Fluorescent Protein | – | –
– | Humanin: 24 amino acid polypeptide, cytosolic form of human Humanin (SEQ ID NO:2); used as synthetic peptide or expressed fusion | suppressed | reduced
